The Kd is the concentration at which binding is half-saturated. Read a high Kd as lower affinity. As usually defined, the koff is a measure of how fast the partners let go of each other. The term kon denotes a measure of how fast the partners come together. A higher kon goes with fast association.

Experiment [1] concerns the target T1, SARS-CoV-2 WHU01 Spike RBD, monomeric (SARS-CoV-2, UniProt P0DTC2).
T1 construct: not shown: Fc (human IgG1), C-terminal, cleaved
The experiment is described as follows: SPR. The note with it: both partners purified.

For experiment [2], the target named is T1, SARS-CoV-2 WHU01 Spike RBD, monomeric. The experiment in a line: SPR. The note with it: both partners purified. This is another data set of the same source.

B1: Rhinolophus sinicus bat ACE2-huFc (soluble bat ACE2 ectodomain, human IgG1 Fc fusion) (Fc fusion)
chain: QSTTEDEAKMFLDKFNTKAEDLSHQSSLASWDYNTNINDENVQKMDEAGAKWSAFYEEQSKLAKNYSLEQIQNVTVKLQLQILQQSGSPVLSEDKSKRLNSILNAMSTIYSTGKVCKPNKPQECLLLEPGLDNIMGTSKDYNERLWAWEGWRAEVGKQLRPLYEEYVVLKNEMARGYHYEDYGDYWRRDYETEESPGPGYSRDQLMKDVERIFTEIKPLYEHLHAYVRAKLMDTYPFHISPTGCLPAHLLGDMWGRFWTNLYPLTVPFGQKPNIDVTDEMLKQGWDADRIFKEAEKFFVSVGLPNMTEGFWNNSMLTEPGDGRKVVCHPTAWDLGKGDFRIKMCTKVTMEDFLTAHHEMGHIQYDMAYASQPYLLRNGANEGFHEAVGEVMSLSVATPKHLKTMGLLSPDFREDNETEINFLLKQALNIVGTLPFTYMLEKWRWMVFKGEIPKEEWMKKWWEMKRKIVGVVEPVPHDETYCDPASLFHVANDYSFIRYYTRTIFEFQFHEALCRIAQHDGPLHKCDISNSTDAGKKLHQMLSVGKSQAWTKTLEDIVDSRNMDVGPLLKYFEPLYTWLQEQNRKSYVGWNTDWSPYSDQSIKVRISLKSALGENAYEWNDNEMYLFRSSVAYAMREYFLKEKHQTILFGAENVWVSNLKPRISFNFHVTSPGNLSDIIPRPEVEGAIRMSRSRINDAFRLDDNSLEFLGIQPTLGPPYQPPVT
In experiment [1], B1 came in with a Kd of 1920 nM, an off-rate constant (koff) of 0.0377 s⁻¹ and a kon of 20000 M⁻¹ s⁻¹. In experiment [2], this molecule had a Kd of 1140 nM, an off-rate constant (koff) of 0.0343 s⁻¹ and a kon of 30000 M⁻¹ s⁻¹.

B2: Pig ACE2-huFc (soluble pig ACE2 ectodomain, human IgG1 Fc fusion) (Fc fusion)
chain: QSTTEELAKTFLEKFNLEAEDLAYQSSLASWNYNTNITDENIQKMNDARAKWSAFYEEQSRIAKTYPLDEIQTLILKRQLQALQQSGTSGLSADKSKRLNTILNTMSTIYSSGKVLDPNNPQECLVLEPGLDEIMENSKDYSRRLWAWESWRAEVGKQLRPLYEEYVVLENEMARANNYEDYGDYWRGDYEVTGTGDYDYSRNQLMEDVERTFAEIKPLYEHLHAYVRAKLMDAYPSRISPTGCLPAHLLGDMWGRFWTNLYPLTVPFGEKPSIDVTEAMVNQSWDAIRIFEEAEKFFVSIGLPNMTQGFWNNSMLTEPGDGRKVVCHPTAWDLGKGDFRIKMCTKVTMDDFLTAHHEMGHIQYDMAYAIQPYLLRNGANEGFHEAVGEIMSLSAATPHYLKALGLLPPDFYEDSETEINFLLKQALTIVGTLPFTYMLEKWRWMVFKGEIPKEQWMQKWWEMKREIVGVVEPLPHDETYCDPACLFHVAEDYSFIRYYTRTIYQFQFHEALCRTAKHEGPLYKCDISNSTEAGQKLLQMLSLGKSEPWTLALENIVGVKTMDVKPLLSYFEPLLTWLKAQNGNSSVGWNTDWTPYADQSIKVRISLKSALGKEAYEWNDNEMYLFRSSIAYAMRNYFSSAKNETIPFGAEDVWVSDLKPRISFNFFVTSPANMSDIIPRSDVEKAISMSRSRINDAFRLDDNTLEFLGIQPTLGPPDEPPVT
As for B2, in experiment [1], binding was put at a Kd of 1000 nM, the koff is 0.0395 s⁻¹ and the kon is 40000 M⁻¹ s⁻¹. In experiment [2], this molecule had a Kd of 1140 nM, a koff of 0.1 s⁻¹ and a kon of 87000 M⁻¹ s⁻¹.

(Values after PMC10715038 (Microbiology Spectrum, 2023).)
